This is an account of results in the nanobody polyreactivity screen of Harvey et al. (2022).

A short description of this data set: yeast display, Sf9 membrane polyspecificity reagent, FACS + sequencing; frameworks hold sequencing errors. The gist of the method:
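A nanobody's polyreactivity label depends on the gate it was sorted from. Yeast display cells were stained with 10% biotinylated, detergent-solubilized Sf9 membrane reagent for 1 hour at 4 °C, enriched on streptavidin microbeads and sorted by FACS. The low and high (top ~1%) gates were set on anti-HA fluorescence for expression and streptavidin fluorescence for reagent binding.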
For “QVQLVESGGGLVQAGGSLRLSCAASGFTFRWNAMGWYRQAPGKERELVAAITNDDSTYYADSVKGRFTISRDNAKNTVYLQMNSLKPEDTAVYYCNADLTQYDAGFDYWGQGTQVTVSS”, the “polyreactivity (PSR sort gate)” value was “low polyreactivity”.

“QVQLVESGGGLVQAGGSLRLSCAASGFTFRWNGMGSYRQAPGKERELVAAISYDGTGTYYADSVKGRFTISRDNAKNTVYLQMNSLKPEDTAVYYCAKTYRDDTSLSGFDSWGQGTQVTVSS”: the “polyreactivity (PSR sort gate)” value is given as “high polyreactivity”. As for “QVQLVESGGGLVQAGGSLRLSCAASGFTFRWYAMGWYRQAPGKERELVAAISSGGGSTYYADSVKGRFTISRDNAKITVYLQMNSLKPEDTAVYYCNSRGTRIASGHYYWGQGTQVTVSS”, the “polyreactivity (PSR sort gate)” value is “high polyreactivity”.

On to “QVQLVESGGGLVQAGGSLRLSCAASGFTFRWYAMGWYRQAPGKERELVAAITGSGGSTYYADSVKGRFTISRDNAKNTVYLQMNSLKPEDTAVYYCNRYGVRYYRYDYWGQGTQVTVSS”, for which the “polyreactivity (PSR sort gate)” value is “high polyreactivity”. In the case of “QVQLVESGGGLVQAGGSLRLSCAASGFTFRWYAMGWYRQAPGKERELVASISRRGGSTYYADSVKGRFTISRDNAKNTVYLQMNSLKPEDTAVYYCAADYYDYWGQGTQVTVSS”, the “polyreactivity (PSR sort gate)” value was “high polyreactivity”. Regarding “QVQLVESGGGLVQAGGSLRLSCAASGFTFRWYDMGWYRKAPGKERELVAAIDASDGSTYYADSVKGRFTISRDNAKNTVYLLMNSLKPEDTAVYYCAAEDYQPYFYLYWYDYWGQGTQVTVSS”, the “polyreactivity (PSR sort gate)” value is recorded as “high polyreactivity”. As to “QVQLVESGGGLVQAGGSLRLSCAASGFTFRWYTMGWYRQAPGKERELVASINWSTGTPYYADSVKGRFTISRDNAKNTVYLQMNSLNPEDTAVYYCNARFRGRVYDRFGYRGQGTQVTVSS”, the “polyreactivity (PSR sort gate)” value is “high polyreactivity”. As to “QVQLVESGGGLVQAGGSLRLSCAASGFTFRYNAMGWYRQAPGKERELVAAITYRGGSTYYADSVKGRFTISRDNAKNTVYLQMNSLKPEDTAVYYCAAVGDLWGYYWGQGSQVTVSS”, the “polyreactivity (PSR sort gate)” value is listed as “low polyreactivity”. “QVQLVESGGGLVQAGGSLRLSCAASGFTFRYNDMGWYRQAPGKERELVAVISSDGTTNYADSVKGRFTISRDNAKNTVYLQMNSLKPEDTAVYYCAAWEFRGNAYYVYAFDYWGQGTQVTVSS”: the “polyreactivity (PSR sort gate)” value is reported as “low polyreactivity”. Consider “QVQLVESGGGLVQAGGSLRLSCAASGFTFRYYAKGWYRQAPVKERELVARISRGGNTYYADSVKGRLTISRDNAKNTVYLHMNSLKPEDTAVYYCAVDLTRTLSGMDYWGQGTQVTVSS”, for which the “polyreactivity (PSR sort gate)” value is recorded as “high polyreactivity”. For “QVQLVESGGGLVQAGGSLRLSCAASGFTFRYYAMGCYRQAPGKVRELVAAITGSGTRTYYADSVKGRFTISRDNAKNTVYLQMNSLKPEDTALYYCNAPRQPRWFDYWGQGTQVTVSS”, the “polyreactivity (PSR sort gate)” value is on record as “high polyreactivity”. As for “QVQLVESGGGLVQAGGSLRLSCAASGFTFRYYAMGSYRQAPGKERELVAAISAGGGSTYYADSVKGRFTISRDNAKNTVYLQMNSLKPEDTAVYYCAAAGARPGYDYWGQGTQVTVSS”, the “polyreactivity (PSR sort gate)” value was “high polyreactivity”. For the sequence “QVQLVESGGGLVQAGGSLRLSCAASGFTFRYYAMGWSRQAPGKERELLAAITGRGGSTYYADSVKGRFTISRDNAKNTVYFQMNSLNPEDTAVSFCAARFTRVYAQVRNDYWGQGTQVTVSS”, the “polyreactivity (PSR sort gate)” value is recorded as “high polyreactivity”.

“QVQLVESGGGLVQAGGSLRLSCAASGFTFRYYAMGWYRPAPGKERELVAAISSGGRTNYADSVKGRFTISRDNAKNTVYLQMNSLKPEDTAVYYCATASRRGDPRLRFYYWGQGTQVTVSS”: the “polyreactivity (PSR sort gate)” value is given as “high polyreactivity”. For “QVQLVESGGGLVQAGGSLRLSCAASGFTFRYYAMGWYRQAPGKEREFVAAIRSSGTTTSYADSVKGRFTISRDNEKNTVYLQMNSLKPEDTAVYYCAAGYFGPQQYYYWGQGTQVTVSS” the value was “high polyreactivity”; for “QVQLVESGGGLVQAGGSLRLSCAASGFTFRYYAMGWYRQAPGKERELVAAISSGGSTYYADSVKGRFTISRDNAKNTVYLQMNSLKPEDTAVYYCATYLAEYGYWGQGTQVTVSS”, “high polyreactivity”; for “QVQLVESGGGLVQAGGSLRLSCAASGFTFRYYAMGWYRQAPGKERELVASISGTGGRTYADSVKGRFTISRDNAKNTVYLQMNSLKPEDTAVYYCAAWSYAYYYRLRYVSHDYWGQGTQVTVSS”, “high polyreactivity”. To “QVQLVESGGGLVQAGGSLRLSCAASGFTFRYYAMGWYRQAPGKERELVASITSGGSTNYADSVKGRFTISRDNAKNTVYLQMNSLKPEDTAVYYCAAQPYKGTGYDYWGQGTQVTVSS” belongs “high polyreactivity”; to “QVQLVESGGGLVQAGGSLRLSCAASGFTFRYYAMGWYRQAPGKERELVATITSGGRTYYADSVKGRFTISRDNAKNTVYLQMNSLKPEDTAVYYCAADVWYVRTKYGYDYWGQGTQVTVSS”, “high polyreactivity”. Consider “QVQLVESGGGLVQAGGSLRLSCAASGFTFRYYVMGWYRQAPGKERELVATITWGGGSTYYADSVKGRFTISRDNAKNTVYLQMNSLKPEDPAVYYCAASLKWGRGVLARVLWYNYWGQGTQVTVSS”, for which the “polyreactivity (PSR sort gate)” value is “low polyreactivity”. As for “QVQLVESGGGLVQAGGSLRLSCAASGFTFSAYAIGWYRQAPGKETELVAAITLRGGSTYYADSVKGRFTISRDNAKNTVYLQMNSLNPEDTAVYYCAAERIYVAYDYWGQGTQLTVSS”, the “polyreactivity (PSR sort gate)” value was “low polyreactivity”. On to “QVQLVESGGGLVQAGGSLRLSCAASGFTFSAYTMGWYRQAPGKERELVAAINWSAANTYYADSVKGRFTISRDNAKNTVSLQMNSLKPEDTAVYYCNAEDDYTYDRSFGGYKYDYWGQGTQVTVSS”, for which the “polyreactivity (PSR sort gate)” value is “low polyreactivity”.

With “QVQLVESGGGLVQAGGSLRLSCAASGFTFSAYTMGWYRQAPGKESELVAAINWSGANTYYADSVKGRFTISRDNAKNTVYLQMNSLKPEDTAVYFCNAEDDYTYDRSFGGYKYDYWGQGTQVTVSS”, the “polyreactivity (PSR sort gate)” value was “low polyreactivity”. As for “QVQLVESGGGLVQAGGSLRLSCAASGFTFSDNAMGWYRQAPGKERELVAAISRSGGNTHYADSVKGRFTISRDNAKNTVFLQMNSLKPEDTAVYYCAARPPGGYLYDYWGQGTQVTVSS”, the “polyreactivity (PSR sort gate)” value is reported as “high polyreactivity”.

For “QVQLVESGGGLVQAGGSLRLSCAASGFTFSDYAMGWYRQAPGKDRELVATISNGDSPYYADSVKGRFTISRDNAKNTVYVQMNSLKPVDTAVNYCATDQPYGADPSNDFDYWGQGTQVTVSS”, the “polyreactivity (PSR sort gate)” value was “low polyreactivity”. For “QVQLVESGGGLVQAGGSLRLSCAASGFTFSFYAMGWYRQAPGKERELVASISDSDGITFYADSVKGSFTISRDNAKNTVYLPMKSLKPEDTAVYYCAADVAIAIPFSYDYWGQGTQVTVSS” the value was “low polyreactivity”. “QVQLVESGGGLVQAGGSLRLSCAASGFTFSIYAMGWSRQAPGKERELVAAIRSSTASTYYADSVKGRFTISRDNAKNTVYLQMNSMKPEDTAVYYCAADTYRTRHIGVKFAFNSWGQGTQVTVSS”: the “polyreactivity (PSR sort gate)” value is “high polyreactivity”. For “QVQLVESGGGLVQAGGSLRLSCAASGFTFSIYAMGWYRHAPGKERELVAAINWSGGSTYYADSVKGRFTISRDNAKNTVYLQMNSLKPEDTAVSYCATEATYGGGPGYEYWGQGTQVTVSS” the value was “low polyreactivity”.

For “QVQLVESGGGLVQAGGSLRLSCAASGFTFSIYAMGWYRQAPGKERELVAAISYRGTSTYYADSVKGRFTISRDNAKNTVYLQMNSLKPEDTAVYYCNKVSSPFVYTVYYWGQGTQVTVSS”, the “polyreactivity (PSR sort gate)” value is listed as “high polyreactivity”. Take “QVQLVESGGGLVQAGGSLRLSCAASGFTFSKYTMGWYRPAPGKERELVAAITSGGSTNYADSVKGRFTISRDNAKNTVYLQMNSLKPEDTAVYYCNKRHIAHNGVGAGLELDYWGQGTQVTVSS”: the “polyreactivity (PSR sort gate)” value is “low polyreactivity”.

In the case of “QVQLVESGGGLVQAGGSLRLSCAASGFTFSKYTMGWYRQAPGKERELVAAITSGGSTNYADSVKGRFTISRDNAKNTVYLQMNSLKPEDTAVYYCNKRHIAHNAVGAGLELDYWGQGTQVTVSS”, the “polyreactivity (PSR sort gate)” value is “low polyreactivity”. Turning to “QVQLVESGGGLVQAGGSLRLSCAASGFTFSLYAMGWYRQAPGKERELVASIDSDGVSTYYADSVKGRFTISRDNAKNTVYLQMNSLKPEDTAVYYCAADFWWGYISGPVRGRGYYWGQGTQVTVSS”, the “polyreactivity (PSR sort gate)” value is on record as “low polyreactivity”. Regarding “QVQLVESGGGLVQAGGSLRLSCAASGFTFSLYAMGWYRQAPGKEWEVVAAISSRGGTTYYADSVKGRFTISRDNAKNTVYLQMNILKAEDTAVYYCAARYVYTRSAFDYWGQGTQVTVSS”, the “polyreactivity (PSR sort gate)” value was “high polyreactivity”.

Regarding “QVQLVESGGGLVQAGGSLRLSCAASGFTFSLYDMGWYRQAPGKERELVADINGSGGSTYYSDSVKGRFTISRDNAKYTVYFQMNSLKPEDTAVYYCAAGPPSRWWYFVDYGYWGQGTQVTVSS”, the “polyreactivity (PSR sort gate)” value is given as “high polyreactivity”. Regarding “QVQLVESGGGLVQAGGSLRLSCAASGFTFSNNVMGWYREAPGKERELVAAISRRGGSTYYADSVKGRFTISRDNAKNTVYLQMNSLKPEDTAVYYCAATYPYYVDTSPGKDDHWRQGTQVTVSS”, the “polyreactivity (PSR sort gate)” value is given as “high polyreactivity”.

For the sequence “QVQLVESGGGLVQAGGSLRLSCAASGFTFSNYAMGWYRQAPGKERELVAAISWSGGSTYYADSVKGRFTISRDNAKNTVYLQMNSLKPEDTAVYYCNVLARPPYYKTRVNSPRSDYWGQGTQVTVSS”, the “polyreactivity (PSR sort gate)” value is recorded as “high polyreactivity”.

For the sequence “QVQLVESGGGLVQAGGSLRLSCAASGFTFSPYAMGGYRKAPGKERELVAAISSSGGSTYYADSVKGRFTISRDNAKNTVYLQMNSLKPEDTAVYYCATQGTRRPGKFYYWGQGTQVPVSS”, the “polyreactivity (PSR sort gate)” value is “high polyreactivity”. Consider “QVQLVESGGGLVQAGGSLRLSCAASGFTFSRNVMGWYRQAPGKERELVADITLSGASTYYADSVKARFTISRDNAKNTVYLQMNSLKPEDTSVYSCAADPYHWRWGWRHDYWGQGTQVTVSS”, for which the “polyreactivity (PSR sort gate)” value is “low polyreactivity”. With “QVQLVESGGGLVQAGGSLRLSCAASGFTFSRNVMGWYRQAPGKERELVADITLSGASTYYADSVKGRFTISRDNAKNTVYLQMNSLKPEDTAVYYCAADPYHWRCGWRHDYWGQGTQVTVSS”, the “polyreactivity (PSR sort gate)” value is listed as “low polyreactivity”. Consider “QVQLVESGGGLVQAGGSLRLSCAASGFTFSSNAMGWYRQAPGKERELVAAIRGSDGNTYYADSVKGRFTISRDNAKNTVYLQMNSLKPEDTAVYYCNARSYGYRTSRARYNYWGQGTQVTVSS”, for which the “polyreactivity (PSR sort gate)” value is given as “high polyreactivity”.
